The values that follow come from US20130129707A1, “ANTIMICROBIAL ACTIVITY ENHANCING AGENT” (priority 2010, published 2013).

As a reminder, the MIC is the smallest concentration in the dilution series that meets the test's criterion for growth inhibition.

Common to all, as to type: cell-based
The subject of assay [1] is Escherichia coli K-12 strain (NBRC 3301). Put plainly: Antimicrobial activity enhancement test (colony count, CFU). The settings on record: culture 17 hours. The protocol: In the antimicrobial activity enhancement test, antimicrobial activity of a sample obtained by mixing the antimicrobial activity enhancing agent of the present invention with lactoferrin or a lactoferrin hydrolysate was measured. As a control, antimicrobial activity of a sample containing only lactoferrin or a lactoferrin hydrolysate was also measured.
By using 1% Bacto peptone medium, Escherichia coli K-12 strain was inoculated into the medium contained in a polystyrene tube with a 5 ml capacity, and precultured in an incubator at 37° C. for 6 hours to obtain a cell suspension for the test. The precultured Escherichia coli was added to a 96-well plate at a cell density of 10^6 cells/mL together with each of the aforementioned samples, and cultured at 37° C. for a predetermined time. After the culture for the predetermined time, the culture medium containing Escherichia coli was serially diluted with 0.85% physiological saline, and plated on an agar medium, and culture was performed at 37° C. for a predetermined time. Then, number of colonies (colony forming units:CFU) was measured.
Antimicrobial activity of each sample was evaluated on the basis of the value of CFU. Degree of enhancement of the antimicrobial activity was calculated by comparison of the numbers of Escherichia coli (CFU) that remained after the test. For example, if CFU of Sample 1 is 100, and CFU of Sample 2 is 10 after the test, the antimicrobial activity of Sample 2 can be determined to be 10 times that of Sample 1. […]
By using 1% Bacto peptone medium (Becton Dickinson), the Escherichia coli K-12 strain (NBRC 3301) was inoculated to the medium contained in a polystyrene tube with a 5 ml capacity at a density of 10^6 CFU/mL, and precultured in an incubator at 37° C. for 6 hours to obtain a cell suspension for the test.
The cell suspension for the test was added to a 96-well plate at a cell density of 10^6 CFU/mL together with each of the aforementioned samples, and culture was performed at 37° C. for 17 hours.
After the culture for 17 hours, the culture medium containing Escherichia coli was serially diluted with 0.85% physiological saline, and plated on an agar medium (Rapid Media RM-SPC, Morinaga Milk Industry), and then culture was performed at 37° C. for 16 hours. Then, number of the formed colonies (CFU: Colony Forming Unit) was measured to evaluate the antimicrobial activity of each sample.

Assay [2] deals with Cronobacter sakazaki ATCC 12868. Put plainly: Minimum inhibitory concentration (MIC), absorbance at 630 nm. The settings on record: Test Example 6; MIC as lactoferrin concentration; 17 hours, 37° C. The protocol:
(§1) By using 1% Bacto peptone medium (Becton Dickinson), each of Escherichia coli 0111, Cronobacter sakazaki ATCC 12868, Salmonella enteritidis IID 604, Klebsiella pneumoniae JCM 1662T, Pseudomonas aeruginosa MMI 603, Staphylococcus aureus JCM 2151 and Staphylococcus epidermidis JCM 2414T was inoculated to the medium contained in a polystyrene tube with a 5 ml capacity at a density of 10^6 cells/mL, and precultured in an incubator at 37° C. for 6 hours to obtain a cell suspension for the test.
(§2) Each of the cell suspensions for the test was added to a 96-well plate at a cell density of 10^6 cells/mL together with each of the aforementioned samples, and culture was performed at 37° C. for 17 hours.
(§3) After the culture for 17 hours, absorbance of the medium was measured at 630 nm using a microplate reader (Corona Electric). In addition, each bacterium was cultured only with the medium as a control, besides the culture using Samples 16 to 30.
(§4) By using 1% Bacto peptone medium (Becton Dickinson), each of Escherichia coli 0111, Cronobacter sakazaki ATCC 12868, Klebsiella pneumoniae JCM 1662T, Pseudomonas aeruginosa MMI 603, and Staphylococcus aureus JCM 2151 was inoculated to the medium contained in a polystyrene tube with a 5 ml capacity at a density of 10^6 cells/mL, and precultured in an incubator at 37° C. for 6 hours to obtain a cell suspension for the test. In a similar manner, by using the PYG medium (1% Bacto peptone, 0.05% yeast extract (Becton Dickinson), 1% glucose (Wako Pure Chemical Industries)), Streptococcus mutans JCM 5705T was inoculated to the medium contained in a polystyrene tube with a 5 ml capacity at a density of 10^6 cells/mL, and precultured in an incubator at 37° C. for 6 hours to obtain a cell suspension for the test. Further, by using the Sabouraud medium (1% Bacto peptone, 2% glucose), Candida albicans TIMM1768 was inoculated to the medium contained in a polystyrene tube with a 5 ml capacity at a density of 10^6 cells/mL, and precultured in an incubator at 37° C. for 6 hours to obtain a cell suspension for the test.
(§5) After the culture for 17 hours, absorbance of the medium was measured at 630 nm using a microplate reader (Corona Electric). In addition, each bacterium was cultured only with the medium as a control, besides the culture using Samples 31 to 41.

Assay [3] has as its system Escherichia coli O111. The description is as above. The settings on record: Test Example 6; MIC as lactoferrin concentration; 17 hours, 37° C. The method, then: as §1, §2, §3, §4, §5
Assay [4] deals with Klebsiella pneumoniae JCM 1662T. The description is as above. The settings on record: Test Example 6; MIC as lactoferrin concentration; 17 hours, 37° C. The protocol: as §1, §2, §3, §4, §5
The test system of assay [5] is Pseudomonas aeruginosa MMI 603. The description is as above. The note with it: Test Example 6; MIC as lactoferrin concentration; 17 hours, 37° C. The method, then:
as §1, §2, §3, §4, §5

Assay [6] relates to Staphylococcus aureus JCM 2151. The description is as above. The settings on record: Test Example 6; MIC as lactoferrin concentration; 17 hours, 37° C. The method, then:
as §1, §2, §3, §4, §5

Assay [7] has as its system Salmonella enteritidis IID 604. The description is as above. The note with it: Test Example 6; MIC as lactoferrin concentration; 17 hours, 37° C. The method, then: as §1, §2, §3
Assay [8] deals with Staphylococcus epidermidis JCM 2414T. Described as above. The note with it: Test Example 6; MIC as lactoferrin concentration; 17 hours, 37° C. The protocol:
as §1, §2, §3

Assay [9] concerns Candida albicans TIMM1768. The description is as above. The settings on record: Test Example 6; MIC as lactoferrin concentration; Sabouraud medium; 17 hours, 37° C. The protocol: (§6) In a similar manner, by using the PYG medium (1% Bacto peptone, 0.05% yeast extract (Becton Dickinson), 1% glucose (Wako Pure Chemical Industries)), Streptococcus mutans JCM 5705T was inoculated to the medium contained in a polystyrene tube with a 5 ml capacity at a density of 10^6 cells/mL, and precultured in an incubator at 37° C. for 6 hours to obtain a cell suspension for the test. Further, by using the Sabouraud medium (1% Bacto peptone, 2% glucose), Candida albicans TIMM1768 was inoculated to the medium contained in a polystyrene tube with a 5 ml capacity at a density of 10^6 cells/mL, and precultured in an incubator at 37° C. for 6 hours to obtain a cell suspension for the test.
as §2
(§7) After the culture for 17 hours, absorbance of the medium was measured at 630 nm using a microplate reader (Corona Electric). In addition, each bacterium was cultured only with the medium as a control, besides the culture using Samples 16 to 30. […]
(§8) After the culture for 17 hours, absorbance of the medium was measured at 630 nm using a microplate reader (Corona Electric). […]

The subject of assay [10] is Streptococcus mutans JCM 5705T. The description is as above. The settings on record: Test Example 6; MIC as lactoferrin concentration; PYG medium; 17 hours, 37° C. The protocol:
as §6, §2, §7, §8

B1: LF: bovine lactoferrin (Morinaga Milk Industry) diluted with deionized water; 2 mg/mL in Samples 1 and 11 (protein, UniProt P24627 20-708, looked up)
Lactotransferrin: APRKNVRWCTISQPEWFKCRRWQWRMKKLGAPSITCVRRAFALECIRAIAEKKADAVTLDGGMVFEAGRDPYKLRPVAAEIYGTKESPQTHYYAVAVVKKGSNFQLDQLQGRKSCHTGLGRSAGWIIPMGILRPYLSWTESLEPLQGAVAKFFSASCVPCIDRQAYPNLCQLCKGEGENQCACSSREPYFGYSGAFKCLQDGAGDVAFVKETTVFENLPEKADRDQYELLCLNNSRAPVDAFKECHLAQVPSHAVVARSVDGKEDLIWKLLSKAQEKFGKNKSRSFQLFGSPPGQRDLLFKDSALGFLRIPSKVDSALYLGSRYLTTLKNLRETAEEVKARYTRVVWCAVGPEEQKKCQQWSQQSGQNVTCATASTTDDCIVLVLKGEADALNLDGGYIYTAGKCGLVPVLAENRKSSKHSSLDCVLRPTEGYLAVAVVKKANEGLTWNSLKDKKSCHTAVDRTAGWNIPMGLIVNQTGSCAFDEFFSQSCAPGADPKSRLCALCAGDDQGLDKCVPNSKEKYYGYTGAFRCLAEDVGDVAFVKNDTVWENTNGESTADWAKNLNREDFRLLCLDGTRKPVTEAQSCHLAVAPNHAVVSRSDRAAHVKQVLLHQQALFGKNGKNCPDKFCLFKSETKNLLFNDNTECLAKLGGRPTYEEYLGTEYVTAIANLKKCSTSPLLEACAFLTR
Take B1: the “Change of Log10 CFU relative to control” value in assay [1] (Test Example 2) is −2.472; in assay [1] (Test Example 5), −2.657. Besides, the “Survival rate based on control” value in [1] (Test Example 2) amounted to 0.337%; in assay [1] (Test Example 5) it was 0.220%. Further, the MIC was found to be 8 mg/mL in assay [2]; 2 mg/mL in assay [3]; 8 mg/mL in assay [4]; 8 mg/mL in assay [5]; 0.5 mg/mL in assay [6]; 4 mg/mL in [7]. In addition, the MIC in [8] is listed as 1 mg/mL; in assay [9], 1 mg/mL; in assay [10], greater than 8 mg/mL.

B2: angiogenin-2: bovine angiogenin-2, about 17 kDa component of peak α in Example 5 (SEQ ID NO: 7) (protein, listed as Bos taurus)
chain: QNDAYRGFLRKHYDPSPTGHDDRYCNTMMERRNMTRPCKDTNTFIHGNSDDIRAVCDDRNGEPYRNGLRRSRSPFQVTTCRHRGGSPRPPCRYRAFRANRVIVIRCRDGFPIHLEENFIPPRP
For the molecule B2, in [1] (Test Example 5), the “antimicrobial activity (in words)” value was “do not have antimicrobial activity”.

B3: Sample 14: Angiogenin-1 (32 μg/mL), bovine, about 15 kDa, separated by gel filtration HPLC in Example 5 (SEQ ID NO: 4) (protein, listed as Bos taurus)
chain: AQDDYRYIHFLTQHYDAKPKGRNDEYCFNMMKNRRLTRPCKDRNTFIHGNKNDIKAICEDRNGQPYRGDLRISKSEFQITICKHKGGSSRPPCRYGATEDSRVIVVGCENGLPVHFDESFITPRH
For B3, in assay [1] (Test Example 5), the “Change of Log10 CFU relative to control” value was 0.160, the “Survival rate based on control” value is on record as 144.654% and the “antimicrobial activity (in words)” value is on record as “do not have antimicrobial activity”.
